In PMC11329236:

Target: KIR3DL1-Fc (UniProt P43629)
Assay: SPR; Biacore T200; KIR3DL1-Fc coupled to a series S Protein A chip at ~1000 RU; soluble monomers injected at 0-193 uM (wild type) or 0-234 uM (V97S); contact 300 s, dissociation 700 s; 25 C; HBS-EP+ buffer; 1:1 binding model

Sequence of UniProt P43629 (P43629 22-320): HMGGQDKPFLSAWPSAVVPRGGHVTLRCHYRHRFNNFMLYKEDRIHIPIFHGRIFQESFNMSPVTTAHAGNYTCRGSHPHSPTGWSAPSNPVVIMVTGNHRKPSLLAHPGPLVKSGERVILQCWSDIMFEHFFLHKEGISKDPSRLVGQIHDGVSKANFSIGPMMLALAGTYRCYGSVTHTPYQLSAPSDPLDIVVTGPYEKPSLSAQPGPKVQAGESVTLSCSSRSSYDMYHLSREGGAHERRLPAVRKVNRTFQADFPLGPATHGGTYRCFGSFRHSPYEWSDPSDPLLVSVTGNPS

“soluble HLA-B*5701 V97S mutant monomer in complex with the TW10 peptide (from UniProt P61769 21-119) (peptide-MHC)” was tested. Which Kd did it give?
The Kd was 185 µM.
